Earlier results, collected in article PMC13371949 (Journal of peptide science : an official publication of the …, 2025).

Key:
[1] = previous work

Substance: glucagon [glucagon control]
- isoelectric point: near neutral
- solubility at pH 7 (pH 7): limited solubility
- time to fibril formation in solution [1]: ~ 11 hours
